Assay: soluble on expression in E. coli; label from the status in PepcDB or PDB records

Soluble on expression in E. coli, not soluble:
MGSDKIHHHHHHMIDKLEFFIALAKEEHFGRAAEACGVTQPTLSAGIKQLEGQLGVMLVNRGSRFQGLTPEGKQVLVWARRIVGDSRSMREEMRAARHGLSGRIRIAAIPTALAMVARLTTPFREKHPGVTFSVLSRTSIEVLSLLGNFDIDAGITYLDNEPLGRVTSVPLYDERYQLITAVGNPYSDRDKVTWAEISRLPLCLLTPDMQNRRIIDQHLAEAGVQVRPTLESNSMIVLFSHIRTGKWSSIMPLNLAETFGFSEPIRAIPIVEPDASHTVGLVAAPREPHTPLVQALLDEAMALADDFRAHR, MGSDKIHHHHHHMIEITHGDILRADTEAIVNTVNCVGVMGRGIALQFKKAWPDNFKAYAAACNSKNVQPGKMFIFETGQLANPRFIINFPTKRHWKGASRIEDIESGLVALVADIQRLGIKSIAIPPLGAGLGGLDWLVVRDKIEAAMQPLTDVQILLYEPAGAPQNDRIAKQKEVPKMTAGRAVLIELMQRYLKGLLDPTVSLLEVHKLLYFMQEAGEPLRLKYEKAHYGPYAQNLRHVLNAIEGHFISGYADGGDKPEKELRLVPGAVKEAQEFLEQHPDTRERFTKVSELVEGFESPLGLELLATVHWLNKYEHVRSTDQVIESVHSWNTRKQLFTARQITIAEKVLARQNWLSA, MGSDKIHHHHHHMIEKVEEKSKIIKTSKEYKRTIIEEKDKEWTKKLNDILSRSSFSNDELDKIKALIPKEILTNENVGEVVTEDGYAKPEYDEVFKSLFTLNNEYDLLVNFINDILKDAPYANRNIKPFTQIKRIIRVETDPTINYIGEKRPRLDILAEDEENNHINIEMQRAFENDYLERAEYYLSRVHGRKLEEGKEYKEIGKTIGIHILNHVKYNHIEDYVNCLRLTMDGHPDIYSSKTALYFIELPKIHKSDYIVNRIMLWGKLISNPSNLDVRVIAKNDSIIKKALDRLKELGSNEEYLLNLKRGAYIMNKSRNFKEEIERETAIRVAKEKDYKIIIMLKKNGFKLDDILNKFNDFDLSEDEIKEVYENN, MGSDKIHHHHHHMIELIATAESVEQAVELLATGVDTLYIGEETFGLRLPVSFTRDEQREIVKRAHEMGKQVLVAVNGIMHPEKMKLVPEYLTFLKEINVDKITLGDPGIVFIMQRDGLEIPYVYDGETLVTSSRQINFWSKRGAIGAVLAREVPFEEMVAMEENLAVPAEILVYGATCIHQSKRPLIQNYYNYTKNDKGVTKDEGLFISEPKKPETHYSIYEDSHGTHIFANNDVNLMNELTNLYDHHYRTWKLDGLYTPGENFVAIARLFAEAKAALEAGTWSEDQAAHATAEIEKLHPTGRGLDNGFFDLSADAIK, MGSDKIHHHHHHMIEVTQGSSPLVLGLPHTGTDVPAEVAQHLNDRGQALADTDWHIHDLYAGLVEGVTTVRTPIHRYVIDVNRDPEGVSLYPGQNTTTLVPLTDFDGHPIWQQEPDAAETAHRLETYHVPYHAALEAEMKRVAGLHGFAILYDCHSIRGDIPFLFEGRLPDFNVGTNLGATCAPSIEDMVFQRCQRAEGYTSVLNGRFKGGWTTRHYGRPDQGWHAIQMELAQATYCDEQPPWRYDPVRADRLRGHLTQILTDLTEWRPA, MGSDKIHHHHHHMIIDLSQLPEPEVIENLDFETIYQELLGDFREAMAGEWTAEVESDPVLKLLQLAAYRELLLRARINDAARAVMLAYASGADLDQIGAGFNVQRLLIRPAQPEAVPPVEAQYESDKSLRNRIQLAFEQLSVAGPRNAYIAHALGADGRVADASATSPAPCEVLISVLGVEGNGQAPEAVLQAVRLALNAEDVRPVADRVTVRSAGIVPYQVKAQLYLFPGPEAELIRAAAEASLRDYISAQRRLGRDIRRSALFATLHVEGVQRVELQEPAADVVLDETQAAYCTGYAITLGGVDE, MGSDKIHHHHHHMIIKTSFLIVIHAQYAKKVVGKKISIYFTIHSGIKIFVKMKTCARISCFLILAVCSFFDAAAQGNFLLWEITGNGLADTSYLFGTIHIRDKRVFNLGDSTYYAITHTKALYGELNLQDKSEMKQHAPELLMPSGTSLQAMLSAQDYKLVKKYCKKHIGVYALLINKIKPIYISAVVSEDLLKKEEKKPLDLYLQDYAARQGNEIGGIETFQEQLSVIDLLPLQEQADMLVEQIKNIDQEKILMEQMLQFYLNESLDSLEILVQEDTLSQEFNEAILDARNKVMLTRMETQMNREPTFFAVGAAHLAGEKGLVILLRKAGYTVRPVKRK, MGSDKIHHHHHHMIILDNHFHVDPINGLFLEAVKQFHRAGGTHLVVVYKSAHDYGFGGMKGEDFMRAMDFHVELVEIINKETPVKAYAVVGVHPAEFDYLARARGIEYAKREVMKALEHAQRLCLDGKAIGIGEVGRPHYPVPEEIWEASIEIMKYAMALAKEADCAVQLHTESFDEEKFRELGRYVREVGIKPYRVVKHFSPPLVKVAEEVGIFPSIIASRKNIEEAIKQGTRFLMETDYIDDKRRPGAVLGPKTVPRRTKELLQKGILTEDDVYRIHVENPEKVYGIEL, MGSDKIHHHHHHMIILDRNSYDLLSYLIKLEEPETVMSISKVLNQSRRKVYYHLDKINEALPSEIPKIISYPRIGILLSSQQKAACRTLLADLDDYSYVMSIQERMLLSITYIAIAKDRVTIEKLMQINAVSRNTILNDLNELRQRLSFEPYSIKLQATKSKGYYLDCHPLSKIQYLNKLLHTIYTDSNPNFIAMMRDKLRDFADLSSYFSDDISSFIRGELQVSQALLGKKINSQDIRFMVATLPYQLLSYQNLGLSEREQRDLLSEFSPIKERKEYEIARHLNENLKREFHIELDEIETSLIAVLLLSYRKDRDMHLESHDYDDMRRVLSYFIDAFELDYHVCFKHKQLLLNQLLTHCKALLFRKAYGIVSNNPLTDQIKDKYADLFAMTKVCLSILENAWSIKMNDDDIAYITIHIGGELVHSETKPTPPAVLTLVCDEGIGVQKLFMQQCKQYLPHSKIEAVLTSEQFYSVADIMAVDLVISTNDSLDTQLPTLFVHSILRDDDAIKLIRFAKQRGQTGQDDFDKKLETYIRHYVKNDSDCYVLKTKIEGLINEELLYDNNKR, MGSDKIHHHHHHMIISWNTTNKCNMHCEHCYRDSGKGAEGELSTTEGKKLIDEIAKAGFKIMIFSGGEPLLRDDIYELIGYASKIGLRCVIGSNGTLITLEAAQKLKKAGVMRAGISLDSLKAKKHDSFRNYSGAWENTIIGIENLKKAGISFQINTTVMKWNKDEVKDITDFGANLGASAHHVFFLVPTGRGAELQEQILSKNDYENLIKEIMLKQAHANIEIKPTCAPQFVRIAEQNNIKTRFKKGCLAGIKYCIISPTGNVQPCAYLNFSAGNVKQKSFGEIWRESPILKKLRTMEYGEKCGTCKYKNKCGGCRARAAFYNNGDIMASDTWCIYNEYEENKING, MGSDKIHHHHHHMIKAMYSGVSGMKANQTKLDVIGNNVANAGTTSFKKSSARITDSFYQTVLYASAPTAALGGTNLGQVGVGSKISSINKDMVQGNVQPTNRPSDLMIDGDGYLPVVRQGTVMYTRDGSFNLDTGFKAADGALKNIKGGRLVNGDGYMLQGMIYDGEYKADTGEFVKKGDAKGKEPIVIPLQSISPKDGTVQNVLEYNISKDGTVEFLLSDGQRTQFVYDIPDGAKVGDTPAGIDKLKGTIQKVQIYAFQNPAGLDAAGGNLFKPSANSGDPQIAGATGTIIQGAIEASNVDIAEEFTEMIIASRSFQANSKIISTSDEILQEIINLKR, MGSDKIHHHHHHMIKHIFCDLDGTLYENGTITKEDIVAIEEIEKKGVQFNVATGRIFKQAHNIIKDSLDMNGYYVCENGSFIYDKDYNVIFKRTIDDNLVKKVIDRFESSDAQLYFKYKGDVIVGSDTTAFRHYSSDFIVDPDFEKRSSFDNLIGNIGVCSENLEELSRIELYLKSEFSEVLEIYFSGTYTLNIVPKSVSKRGSIEHVIKTLNVSPDEVATIGDSPNDICMLEGFKYSFAMSKAREDVKQSANYVVDSVKSAIDVIMEINS, MGSDKIHHHHHHMIKILLLIDYSSEFDRKLLRGLVQYSKENGPWLFYRLPSYYSGMYGEKGILKWAKEWKADAIIGQWNNDTVNLLKELNIPIVLQNYHHRSTTYSNLTGDYKGTGRMAAQFFAKRMFHNFAYFGINGVVWSDERCEGFRQEVKRIGGNFYCFESDKHEDEIRIEVSQWLQELPKPIALFCCDDSHALFISETCKISNIHIPEEISLLGVDNDDLICNISDPPISSIELEVERGGYSIGRLIHQQIKKEHEGTFNIVINPIRIELRQSTEKHNIKDPYILEVVKYIESHYNSDLTIESLLAQIPLSRRNFEVKFKNAMHTSIYQYILNCRVNHLADLLLTTDRSLADIATEAGFKDYNNISRIFKKFKGCSPLEYREKKITNR
